The record followed here is paper PMC6028955 (The Journal of Biological Chemistry, 2018).

This data set concerns the molecule itself. Put plainly: AUC; sedimentation velocity (4 °C, 49,000 rpm) and sedimentation equilibrium; 25 mM Tris-HCl pH 7.6, 200 mM NaCl, 2 mM TCEP; SE fitted with a single species model.

B1: human SSRP1 lacking the C-terminal ID regions and the HMG domain (residues 1–433) (domain or fragment, UniProt Q08945 1-433, looked up)
chain: MAETLEFNDVYQEVKGSMNDGRLRLSRQGIIFKNSKTGKVDNIQAGELTEGIWRRVALGHGLKLLTKNGHVYKYDGFRESEFEKLSDFFKTHYRLELMEKDLCVKGWNWGTVKFGGQLLSFDIGDQPVFEIPLSNVSQCTTGKNEVTLEFHQNDDAEVSLMEVRFYVPPTQEDGVDPVEAFAQNVLSKADVIQATGDAICIFRELQCLTPRGRYDIRIYPTFLHLHGKTFDYKIPYTTVLRLFLLPHKDQRQMFFVISLDPPIKQGQTRYHFLILLFSKDEDISLTLNMNEEEVEKRFEGRLTKNMSGSLYEMVSRVMKALVNRKITVPGNFQGHSGAQCITCSYKASSGLLYPLERGFIYVHKPPVHIRFDEISFVNFARGTTTTRSFDFEIETKQGTQYTFSSIEREEYGKLFDFVNAKKLNIKNRGLKEG
notes: structure-specific recognition protein-1 (SSRP1), human, residues 1–433 (PH1–PH4; lacks ID1, HMG, ID2); Homodimer by sedimentation equilibrium; predicted monomer mass 49.8 kDa; also called hSSRP1ΔCTD; hSSRP1; source: E. coli BL21 (DE3) Gold, purified (Ni-NTA, TEV treatment, anion-exchange, size-exclusion chromatography); not shown: His6, N-terminal, cleaved
With B1, the “stoichiometry N” value came out at 2.

As usually defined, the stoichiometry N is a count of units in the complex or per binding partner.
